Source: US6387638
Ends that are not written are not given here.

Key:
[1] = target: T1, ErbB-3 receptor-Ig fusion (homodimer) (human, UniProt P21860 20-643; P21860 20-636); test: phage ELISA, soluble ErbB-3-Ig as competitor
[2] = target: T2, ErbB-4 receptor-Ig fusion (homodimer) (human, UniProt Q15303 26-651; Q15303 26-640); test: phage ELISA, soluble ErbB-4-Ig as competitor
[3] = target: T1, ErbB-3 receptor-Ig fusion (homodimer); test: phage ELISA, soluble ErbB-3-Ig as competitor; remark: listed apart in the source
[4] = target: T1, ErbB-3 receptor-Ig fusion (homodimer); test: displacement of 125I-HRG-β1 177-244 from plate-bound ErbB-3-Ig
[5] = target: T2, ErbB-4 receptor-Ig fusion (homodimer); test: displacement of 125I-HRG-β1 177-244 from plate-bound ErbB-4-Ig

T2 sequence (Q15303 other isoform, or with tags, fused parts or gaps): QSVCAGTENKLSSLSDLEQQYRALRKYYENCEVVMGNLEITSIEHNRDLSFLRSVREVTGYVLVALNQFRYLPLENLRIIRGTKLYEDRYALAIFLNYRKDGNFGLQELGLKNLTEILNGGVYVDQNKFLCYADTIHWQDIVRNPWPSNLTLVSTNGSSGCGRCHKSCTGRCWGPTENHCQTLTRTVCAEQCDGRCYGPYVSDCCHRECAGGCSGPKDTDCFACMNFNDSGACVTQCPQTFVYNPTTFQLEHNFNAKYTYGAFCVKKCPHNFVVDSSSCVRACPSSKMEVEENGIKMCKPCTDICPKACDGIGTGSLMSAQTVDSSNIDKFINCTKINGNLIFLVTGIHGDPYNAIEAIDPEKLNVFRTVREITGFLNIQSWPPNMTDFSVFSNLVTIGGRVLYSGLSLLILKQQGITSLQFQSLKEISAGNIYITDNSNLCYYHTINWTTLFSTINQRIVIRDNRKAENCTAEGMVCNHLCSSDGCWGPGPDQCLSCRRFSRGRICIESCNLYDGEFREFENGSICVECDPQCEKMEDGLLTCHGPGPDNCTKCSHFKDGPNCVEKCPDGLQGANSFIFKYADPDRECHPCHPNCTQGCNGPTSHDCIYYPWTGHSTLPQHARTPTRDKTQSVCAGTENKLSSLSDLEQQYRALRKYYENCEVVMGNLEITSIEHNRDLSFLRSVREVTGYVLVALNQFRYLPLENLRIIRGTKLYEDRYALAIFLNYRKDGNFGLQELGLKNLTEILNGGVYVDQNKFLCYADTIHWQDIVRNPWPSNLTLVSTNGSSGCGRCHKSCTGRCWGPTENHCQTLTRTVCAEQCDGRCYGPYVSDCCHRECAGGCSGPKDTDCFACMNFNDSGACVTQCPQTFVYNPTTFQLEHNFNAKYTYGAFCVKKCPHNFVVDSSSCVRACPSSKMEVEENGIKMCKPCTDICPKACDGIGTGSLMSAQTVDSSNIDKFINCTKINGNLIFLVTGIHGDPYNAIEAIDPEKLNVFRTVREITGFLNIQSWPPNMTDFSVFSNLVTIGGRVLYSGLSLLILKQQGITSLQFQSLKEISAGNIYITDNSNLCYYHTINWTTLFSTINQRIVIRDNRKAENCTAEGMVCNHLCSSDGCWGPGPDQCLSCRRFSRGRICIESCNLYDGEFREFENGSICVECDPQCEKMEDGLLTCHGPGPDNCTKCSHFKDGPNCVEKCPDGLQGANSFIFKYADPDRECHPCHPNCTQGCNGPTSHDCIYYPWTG
T1 sequence (P21860 other isoform, or with tags, fused parts or gaps): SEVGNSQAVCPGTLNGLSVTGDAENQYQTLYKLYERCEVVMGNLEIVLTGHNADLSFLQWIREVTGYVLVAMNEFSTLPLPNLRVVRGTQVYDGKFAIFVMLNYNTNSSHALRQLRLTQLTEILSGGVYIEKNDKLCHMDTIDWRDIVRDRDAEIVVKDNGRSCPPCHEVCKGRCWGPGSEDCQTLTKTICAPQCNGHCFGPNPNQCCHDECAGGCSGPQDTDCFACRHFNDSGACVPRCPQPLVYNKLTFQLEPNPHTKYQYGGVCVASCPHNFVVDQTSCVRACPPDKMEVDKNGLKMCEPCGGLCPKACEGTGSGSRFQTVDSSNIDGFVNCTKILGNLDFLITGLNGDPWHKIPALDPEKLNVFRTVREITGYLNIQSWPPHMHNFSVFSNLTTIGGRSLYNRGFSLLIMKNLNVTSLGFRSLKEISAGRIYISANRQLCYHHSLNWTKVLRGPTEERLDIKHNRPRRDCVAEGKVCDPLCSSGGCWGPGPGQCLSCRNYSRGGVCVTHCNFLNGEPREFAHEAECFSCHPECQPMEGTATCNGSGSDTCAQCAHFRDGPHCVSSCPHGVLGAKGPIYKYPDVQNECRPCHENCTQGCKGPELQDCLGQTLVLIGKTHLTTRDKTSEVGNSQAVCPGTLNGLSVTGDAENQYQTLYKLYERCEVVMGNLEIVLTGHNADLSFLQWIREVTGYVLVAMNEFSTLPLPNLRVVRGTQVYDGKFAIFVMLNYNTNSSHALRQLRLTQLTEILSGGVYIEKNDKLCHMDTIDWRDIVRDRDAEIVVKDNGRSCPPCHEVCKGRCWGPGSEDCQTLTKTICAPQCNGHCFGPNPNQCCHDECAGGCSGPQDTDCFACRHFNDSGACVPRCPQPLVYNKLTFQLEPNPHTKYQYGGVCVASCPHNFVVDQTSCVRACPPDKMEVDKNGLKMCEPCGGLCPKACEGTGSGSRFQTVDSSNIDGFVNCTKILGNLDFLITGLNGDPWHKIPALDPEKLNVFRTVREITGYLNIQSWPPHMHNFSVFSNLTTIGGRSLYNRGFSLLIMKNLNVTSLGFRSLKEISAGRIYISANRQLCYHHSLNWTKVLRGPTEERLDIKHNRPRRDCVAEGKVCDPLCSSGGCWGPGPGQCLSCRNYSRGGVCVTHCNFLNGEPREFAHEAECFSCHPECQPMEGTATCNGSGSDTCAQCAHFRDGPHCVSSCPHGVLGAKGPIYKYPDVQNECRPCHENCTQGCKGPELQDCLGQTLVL

Molecule | EC50(wt)/EC50(mut) [3] [ratio] | EC50 [4] [nM] | EC50 [5] [nM] | other results
HRG-β1 177-244 H178L with 228-231 replaced by Met, phage-displayed (Example 4 clone) (from UniProt P69168 265-424) (ligand) |  |  |  | EC50 Mut/WT [1]: 6.4; EC50 Mut/WT [2]: 1.7
HRG-β1 177-244 H178W with 228-231 replaced by Met, phage-displayed (Example 4 clone) (from UniProt P69168 265-424) (ligand) |  |  |  | EC50 Mut/WT [1]: 1.2; EC50 Mut/WT [2]: 1.7
HRG-β1 177-244 R207P, phage-displayed (Example 4 clone) (from UniProt P69168 265-424) (ligand) |  |  |  | EC50 Mut/WT [1]: 6.1; EC50 Mut/WT [2]: 1.3
HRG-β1 177-244 H178D L179V, phage-displayed (Example 4 clone) (from UniProt P69168 265-424) (ligand) |  |  |  | EC50 Mut/WT [1]: 2.2; EC50 Mut/WT [2]: 2
HRG-β1 177-244 H178E, phage-displayed (Example 4 clone) (from UniProt P69168 265-424) (ligand) |  |  |  | EC50 Mut/WT [1]: 9.5; EC50 Mut/WT [2]: 1.7
HRG90: HRG-β1 EGF Met226Ile, phage-displayed (ligand, phage M13, range 323-end) SHLVKCAEKEKTFCVNGGECFMVKDLSNPSRYLCKCPNEFTGDRCQNYVIASGGGSGGGSGGGSNSQMAQVGDGDNSPLMNNFRQYLPSLPQSVECRPFVFSAGKPYEFSIDCDKINLFRGVFAFLLYVATFMYVFSTFANILRNKES | 6.3 |  |  | 
HRG-β1 EGF variant D1, phage-displayed (ligand, not fully specified; cysteine pairing not given here, pHRG8-g3 scaffold; not shown: Display carrier only: the (GGGS)3 linker and the M13 pIII C-terminal fragment from residue 323) SHLVKCAEKEKTFCVNGGECYKVRILSNPSRYLCKCPNEFTGDRCQNYVIAS | 11 |  |  | 
HRG-β1 EGF variant D10, phage-displayed (ligand, not fully specified; cysteine pairing not given here, pHRG8-g3 scaffold; not shown: Display carrier only: the (GGGS)3 linker and the M13 pIII C-terminal fragment from residue 323) SHLVKCAEKEKTFCVNGGECYMVKTLSNPSRYLCKCPNEFTGDRCQNYVMAS | 2.1 |  |  | 
combination variant HRG59, phage-displayed (ligand, not fully specified; cysteine pairing not given here, not shown: Display carrier: (GGGS)3 linker and M13 pIII C-terminal fragment from residue 323) SHLVKCAEKEKTFCVNGGECYRVKTLSNPSRYLCKCPNEFTGDRCQNYVIAS | 26 |  |  | 
HRG-β1 EGF variant B5, phage-displayed (ligand, not fully specified; cysteine pairing not given here, pHRG8-g3 scaffold; not shown: Display carrier only: the (GGGS)3 linker and the M13 pIII C-terminal fragment from residue 323) SHLVKCGWDREGFCVNGGECFMVKDLSNPSRYLCKCPNEFTGDRCQNYVIAS | 26 |  |  | 
combination variant HRG53, phage-displayed (ligand, not fully specified; cysteine pairing not given here, not shown: Display carrier: (GGGS)3 linker and M13 pIII C-terminal fragment from residue 323) SHLVKCGEEREGFCVNGGECYRVKTLSNPSRYLCKCPNEFTGDRCQNYVMAS | 26 |  |  | 
combination variant HRG60, phage-displayed (ligand, not fully specified; cysteine pairing not given here, not shown: Display carrier only: (GGGS)3 linker and the M13 pIII C-terminal fragment from residue 323) SHLVKCGEEREGFCVNGGECYRVKTLSNPSRYLCKCPNEFTGDRCQNYVIAS | 63 |  |  | 
HRG-β1 EGF variant B10, phage-displayed (ligand, not fully specified; cysteine pairing not given here, pHRG8-g3 scaffold; not shown: Display carrier only: the (GGGS)3 linker and the M13 pIII C-terminal fragment from residue 323) SHLVKCDKSREGFCVNGGECFMVKDLSNPSRYLCKCPNEFTGDRCQNYVIAS | 9.3 |  |  | 
combination variant HRG56, phage-displayed (ligand, not fully specified; cysteine pairing not given here, not shown: Display carrier: (GGGS)3 linker and M13 pIII C-terminal fragment from residue 323) SHLVKCGEEREGFCVNGGECFMVKDLSNPSRYLCKCPNEFTGDRCQNYVIAS | 31 |  |  | 
SHLVKCAEKEKTFCVNGGECFMVKDYRYRMCKCPNEFTGDRCQNYVIAS (ligand, not fully specified; cysteine pairing not given here, not shown: Display carrier only: the (GGGS)3 linker and the M13 pIII C-terminal fragment from residue 323) [HRG-β1 EGF variant E3, phage-displayed] | 16 |  |  | 
SHLVKCAEKEKTFCVNGGECFMVKDYGYLMCKCPNEFTGDRCQNYVIAS (ligand, not fully specified; cysteine pairing not given here, not shown: Display carrier: (GGGS)3 linker and M13 pIII C-terminal fragment from residue 323) [combination variant HRG48, phage-displayed] | 49 |  |  | 
SHLVKCAEKEKTFCVNGGECYRVKTYGYLMCKCPNEFTGDRCQNYVMAS (ligand, not fully specified; cysteine pairing not given here, not shown: Display carrier: (GGGS)3 linker and M13 pIII C-terminal fragment from residue 323) [combination variant HRG57, phage-displayed] | 24 |  |  | 
SHLVKCAEKEKTFCVNGGECFMVKDTHYRMCKCPNEFTGDRCQNYVMAS (ligand, not fully specified; cysteine pairing not given here, not shown: Display carrier only: the (GGGS)3 linker and the M13 pIII C-terminal fragment from residue 323) [HRG-β1 EGF variant E6, phage-displayed] | 6.6 |  |  | 

Molecule | EC50(wt)/EC50(mut) [3] [ratio] | EC50 [4] [nM] | EC50 [5] [nM] | other results
SHLVKCAEKEKTFCVNGGECYRVKTYGYLMCKCPNEFTGDRCQHYVIAS (ligand, not fully specified; cysteine pairing not given here, not shown: Display carrier only: (GGGS)3 linker and the M13 pIII C-terminal fragment from residue 323) [combination variant HRG71, phage-displayed] | 79 |  |  | 
Trx-HRG-β1 146-244 S177A fusion (soluble) (ligand) AYVSSESPIRISVSTEGANTSSSTSTSTTGTAHLVKCAEKEKTFCVNGGECFMVKDLSNPSRYLCKCPNEFTGDRCQNYVMASFYKHLGIEFMEAEELY |  | 129 | 54.6 | 
Trx-HRG-β1 146-244 R207A fusion (soluble) (ligand) AYVSSESPIRISVSTEGANTSSSTSTSTTGTSHLVKCAEKEKTFCVNGGECFMVKDLSNPSAYLCKCPNEFTGDRCQNYVMASFYKHLGIEFMEAEELY |  | 245 | 24.3 | 
Trx-HRG-β1 146-244 G194A fusion (soluble) (ligand) AYVSSESPIRISVSTEGANTSSSTSTSTTGTSHLVKCAEKEKTFCVNGAECFMVKDLSNPSRYLCKCPNEFTGDRCQNYVMASFYKHLGIEFMEAEELY |  | 1210 | 275 | 
Trx-HRG-β1 146-244 E195A fusion (soluble) (ligand) AYVSSESPIRISVSTEGANTSSSTSTSTTGTSHLVKCAEKEKTFCVNGGACFMVKDLSNPSRYLCKCPNEFTGDRCQNYVMASFYKHLGIEFMEAEELY |  | 42 | 13.2 | 
Trx-HRG-β1 146-244 H178A fusion (soluble) (ligand) AYVSSESPIRISVSTEGANTSSSTSTSTTGTSALVKCAEKEKTFCVNGGECFMVKDLSNPSRYLCKCPNEFTGDRCQNYVMASFYKHLGIEFMEAEELY |  | 476 | 138 | 
Trx-HRG-β1 146-244 T217A fusion (soluble) (ligand) AYVSSESPIRISVSTEGANTSSSTSTSTTGTSHLVKCAEKEKTFCVNGGECFMVKDLSNPSRYLCKCPNEFAGDRCQNYVMASFYKHLGIEFMEAEELY |  | 145 | 32.7 | 
Trx-HRG-β1 146-244 L179A fusion (soluble) (ligand) AYVSSESPIRISVSTEGANTSSSTSTSTTGTSHAVKCAEKEKTFCVNGGECFMVKDLSNPSRYLCKCPNEFTGDRCQNYVMASFYKHLGIEFMEAEELY |  | 394 | 51.7 | 
Trx-HRG-β1 146-244 G193A fusion (soluble) (ligand) AYVSSESPIRISVSTEGANTSSSTSTSTTGTSHLVKCAEKEKTFCVNAGECFMVKDLSNPSRYLCKCPNEFTGDRCQNYVMASFYKHLGIEFMEAEELY |  | 26.9 | 76.3 | 
Trx-HRG-β1 146-244 F189A fusion (soluble) (ligand) AYVSSESPIRISVSTEGANTSSSTSTSTTGTSHLVKCAEKEKTACVNGGECFMVKDLSNPSRYLCKCPNEFTGDRCQNYVMASFYKHLGIEFMEAEELY |  | 975 | 565 | 
Trx-HRG-β1 146-244 P205A fusion (soluble) (ligand) AYVSSESPIRISVSTEGANTSSSTSTSTTGTSHLVKCAEKEKTFCVNGGECFMVKDLSNASRYLCKCPNEFTGDRCQNYVMASFYKHLGIEFMEAEELY |  | 39.5 | 34.2 | 
Trx-HRG-β1 146-244 N192A fusion (soluble) (ligand) AYVSSESPIRISVSTEGANTSSSTSTSTTGTSHLVKCAEKEKTFCVAGGECFMVKDLSNPSRYLCKCPNEFTGDRCQNYVMASFYKHLGIEFMEAEELY |  | 1640 | 696 | 
Trx-HRG-β1 146-244 K200A fusion (soluble) (ligand) AYVSSESPIRISVSTEGANTSSSTSTSTTGTSHLVKCAEKEKTFCVNGGECFMVADLSNPSRYLCKCPNEFTGDRCQNYVMASFYKHLGIEFMEAEELY |  | 45.4 | 16.9 | 
SHLVKCGEEREGFCVNGGECFMVKDYGYLMCKCPNEFTGDRCQNYVMAS (ligand, not fully specified; cysteine pairing not given here, not shown: Display carrier: (GGGS)3 linker and M13 pIII C-terminal fragment from residue 323) [combination variant HRG54, phage-displayed] | 12 |  |  | 
SHLVKCGEEREGFCVNGGECYRVKTYGYLMCKCPNEFTGDRCQNYVIAS (ligand, not fully specified; cysteine pairing not given here, not shown: Display carrier only: (GGGS)3 linker and the M13 pIII C-terminal fragment from residue 323) [combination variant HRG62, phage-displayed] | 32 |  |  | 
SHLVKCGEEREGFCVNGGECYRVKTYGYLMCKCPNEFTGDRCQNYVMAS (ligand, not fully specified; cysteine pairing not given here, not shown: Display carrier: (GGGS)3 linker and M13 pIII C-terminal fragment from residue 323) [combination variant HRG55, phage-displayed] | 13 |  |  | 
SHLVKCGEEREGFCVNGGECFMVKDYGYLMCKCPNEFTGDRCQNYVIAS (ligand, not fully specified; cysteine pairing not given here, not shown: Display carrier only: (GGGS)3 linker and the M13 pIII C-terminal fragment from residue 323) [combination variant HRG61, phage-displayed] | 29 |  |  | 
